This is an account of results in article PMC2637931.

Test [1] addresses soluble portion of the transferrin receptor expressed as a recombinant entity (UniProt P02786).
In test [2] the target is sTFR with 5-hydroxytryptophan substituted for Trp (UniProt P02786).

Chain of soluble portion of the transferrin receptor expressed as a recombinant entity (P02786 122-760): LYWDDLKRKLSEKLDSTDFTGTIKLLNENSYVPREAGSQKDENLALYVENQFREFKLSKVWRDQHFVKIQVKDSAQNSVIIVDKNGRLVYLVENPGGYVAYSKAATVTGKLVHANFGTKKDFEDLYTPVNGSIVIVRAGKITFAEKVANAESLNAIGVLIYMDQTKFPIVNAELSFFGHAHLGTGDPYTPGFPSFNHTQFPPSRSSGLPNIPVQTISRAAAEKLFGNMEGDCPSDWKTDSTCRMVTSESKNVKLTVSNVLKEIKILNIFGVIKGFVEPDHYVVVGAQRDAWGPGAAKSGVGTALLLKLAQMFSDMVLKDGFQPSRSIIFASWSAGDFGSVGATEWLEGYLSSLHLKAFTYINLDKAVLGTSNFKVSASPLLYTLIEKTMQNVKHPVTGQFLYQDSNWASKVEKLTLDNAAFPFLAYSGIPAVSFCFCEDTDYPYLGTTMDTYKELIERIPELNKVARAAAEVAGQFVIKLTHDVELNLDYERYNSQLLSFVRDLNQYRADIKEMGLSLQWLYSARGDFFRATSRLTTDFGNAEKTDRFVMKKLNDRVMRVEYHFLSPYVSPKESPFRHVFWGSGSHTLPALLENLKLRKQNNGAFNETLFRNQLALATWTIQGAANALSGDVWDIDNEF

For the substance “FeC hTF with 5-hydroxytryptophan substituted for Trp (from UniProt P02787 20-698) (ligand)”, in test [1], the k (obsC1) of iron release from the complex at pH 5.6, excitation 280 nm stood at 25.8 min^-1; the k (obsC1) of iron release from the complex at pH 5.6, excitation 315 nm came to 14.1 min^-1; the k (obsC2) of iron release from the complex at pH 5.6, excitation 280 nm worked out at 8.3 min^-1; the k (obsC2) of iron release from the complex at pH 5.6, excitation 315 nm was 2.8 min^-1. In addition, in test [2], the k (obsC1) of iron release from the complex at pH 5.6, excitation 280 nm was determined as 18.1 min^-1; the k (obsC1) of iron release from the complex at pH 5.6, excitation 315 nm was found to be 22.4 min^-1; the k (obsC2) of iron release from the complex at pH 5.6, excitation 280 nm is 4 min^-1; the k (obsC2) of iron release from the complex at pH 5.6, excitation 315 nm was determined as 3.4 min^-1.
